# B1: Azoarcus group I ribozyme (parent)
# chain: GUGCCUUGCGCCGGGAAACCACGCAAGGGAUGGUGUCAAAUUCGGCGAAACCUAAGCGCCCGCCCGGGCGUAUGGCAACGCCGAGCCAAGCUUCGGCGCCUGCGCCGAUGAAGGUGUAGAGACUAGACGGCACCCACCUAAGGCAAACGCUAUGGUGAAGGCAUAGUCCAGGGAGUGGCGAAAGUCACACAAACCGG
# Variants of: B1
# Assay: reverse-splicing fitness (ratio to wild type); higher = more active; in vitro selection; Mg2+ level not given
# In short: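 An in vitro group I ribozyme library with randomized positions was T7-transcribed and gel-purified. In triplicate, 10 pmol RNA in EPPS pH 7.5 was reacted with 50 pmoles of a 30-nt RNA substrate for 1 h at 37 °C across several added MgCl2 levels (1–48 mM), then stopped with EDTA. Products were reverse transcribed from a substrate-complementary primer, PCR-amplified and sequenced (HiSeq 4000). Fitness is a variant's read proportion after selection over that before, normalised to wild type.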
row,Variant,reverse-splicing fitness
1,GUGCCUUGCGCCGGGAAACCACGCAAGGGAUGGUGUCAAAUUCGGCGAAACCUAAGCGCCCGCCCGGGCGUAUGGCAACGCCGAGCCAAGCUUCGGCGCCUGCGCCGAUGAAGGUGUAGGGACUAGACGGCACCCACCUAAGGCCAACGAUAUGGUGAAGGCAUAGUCAAGGGAGAGGCGAAAGUCACACAAACCGG [A120G A145C C150A C169A U176A],0.0162
2,GUGCCUUGCGCCGGGAAACCACGCAAGGGAUGGUGUCAAAUUCGGCGAAACCUAAGCGCCCGCCCGGGCGUAUGGCAACGCCGAGCCAAGCUUCGGCGCCUGCGCCGAUGAAGGUGUAGGGACUAGACGGCACCCACCUAAGGCCAACGAUAUGGUGAAGGCAUAGUCAAGGGAGCGGCGAAAGUCACACAAACCGG [A120G A145C C150A C169A U176C],0.0164
3,GUGCCUUGCGCCGGGAAACCACGCAAGGGAUGGUGUCAAAUUCGGCGAAACCUAAGCGCCCGCCCGGGCGUAUGGCAACGCCGAGCCAAGCUUCGGCGCCUGCGCCGAUGAAGGUGUAGGGACUAGACGGCACCCACCUAAGGCCAACGAUAUGGUGAAGGCAUAGUCAAGGGAGGGGCGAAAGUCACACAAACCGG [A120G A145C C150A C169A U176G],0.00472
4,GUGCCUUGCGCCGGGAAACCACGCAAGGGAUGGUGUCAAAUUCGGCGAAACCUAAGCGCCCGCCCGGGCGUAUGGCAACGCCGAGCCAAGCUUCGGCGCCUGCGCCGAUGAAGGUGUAGGGACUAGACGGCACCCACCUAAGGCCAACGAUAUGGUGAAGGCAUAGUCGAGGGAGUGGCGAAAGUCACACAAACCGG [A120G A145C C150A C169G],0.0475
5,GUGCCUUGCGCCGGGAAACCACGCAAGGGAUGGUGUCAAAUUCGGCGAAACCUAAGCGCCCGCCCGGGCGUAUGGCAACGCCGAGCCAAGCUUCGGCGCCUGCGCCGAUGAAGGUGUAGGGACUAGACGGCACCCACCUAAGGCCAACGAUAUGGUGAAGGCAUAGUCGAGGGAGAGGCGAAAGUCACACAAACCGG [A120G A145C C150A C169G U176A],0.0447
6,GUGCCUUGCGCCGGGAAACCACGCAAGGGAUGGUGUCAAAUUCGGCGAAACCUAAGCGCCCGCCCGGGCGUAUGGCAACGCCGAGCCAAGCUUCGGCGCCUGCGCCGAUGAAGGUGUAGGGACUAGACGGCACCCACCUAAGGCCAACGAUAUGGUGAAGGCAUAGUCGAGGGAGCGGCGAAAGUCACACAAACCGG [A120G A145C C150A C169G U176C],0.0391
7,GUGCCUUGCGCCGGGAAACCACGCAAGGGAUGGUGUCAAAUUCGGCGAAACCUAAGCGCCCGCCCGGGCGUAUGGCAACGCCGAGCCAAGCUUCGGCGCCUGCGCCGAUGAAGGUGUAGGGACUAGACGGCACCCACCUAAGGCCAACGAUAUGGUGAAGGCAUAGUCGAGGGAGGGGCGAAAGUCACACAAACCGG [A120G A145C C150A C169G U176G],0.00572
8,GUGCCUUGCGCCGGGAAACCACGCAAGGGAUGGUGUCAAAUUCGGCGAAACCUAAGCGCCCGCCCGGGCGUAUGGCAACGCCGAGCCAAGCUUCGGCGCCUGCGCCGAUGAAGGUGUAGGGACUAGACGGCACCCACCUAAGGCCAACGAUAUGGUGAAGGCAUAGUCUAGGGAGUGGCGAAAGUCACACAAACCGG [A120G A145C C150A C169U],0.0377
9,GUGCCUUGCGCCGGGAAACCACGCAAGGGAUGGUGUCAAAUUCGGCGAAACCUAAGCGCCCGCCCGGGCGUAUGGCAACGCCGAGCCAAGCUUCGGCGCCUGCGCCGAUGAAGGUGUAGGGACUAGACGGCACCCACCUAAGGCCAACGAUAUGGUGAAGGCAUAGUCUAGGGAGAGGCGAAAGUCACACAAACCGG [A120G A145C C150A C169U U176A],0.0398
10,GUGCCUUGCGCCGGGAAACCACGCAAGGGAUGGUGUCAAAUUCGGCGAAACCUAAGCGCCCGCCCGGGCGUAUGGCAACGCCGAGCCAAGCUUCGGCGCCUGCGCCGAUGAAGGUGUAGGGACUAGACGGCACCCACCUAAGGCCAACGAUAUGGUGAAGGCAUAGUCUAGGGAGCGGCGAAAGUCACACAAACCGG [A120G A145C C150A C169U U176C],0.0294
11,GUGCCUUGCGCCGGGAAACCACGCAAGGGAUGGUGUCAAAUUCGGCGAAACCUAAGCGCCCGCCCGGGCGUAUGGCAACGCCGAGCCAAGCUUCGGCGCCUGCGCCGAUGAAGGUGUAGGGACUAGACGGCACCCACCUAAGGCCAACGAUAUGGUGAAGGCAUAGUCUAGGGAGGGGCGAAAGUCACACAAACCGG [A120G A145C C150A C169U U176G],0.00621
12,GUGCCUUGCGCCGGGAAACCACGCAAGGGAUGGUGUCAAAUUCGGCGAAACCUAAGCGCCCGCCCGGGCGUAUGGCAACGCCGAGCCAAGCUUCGGCGCCUGCGCCGAUGAAGGUGUAGGGACUAGACGGCACCCACCUAAGGCCAACGAUAUGGUGAAGGCAUAGUCCAGGGAGAGGCGAAAGUCACACAAACCGG [A120G A145C C150A U176A],0.027
13,GUGCCUUGCGCCGGGAAACCACGCAAGGGAUGGUGUCAAAUUCGGCGAAACCUAAGCGCCCGCCCGGGCGUAUGGCAACGCCGAGCCAAGCUUCGGCGCCUGCGCCGAUGAAGGUGUAGGGACUAGACGGCACCCACCUAAGGCCAACGAUAUGGUGAAGGCAUAGUCCAGGGAGCGGCGAAAGUCACACAAACCGG [A120G A145C C150A U176C],0.0279
14,GUGCCUUGCGCCGGGAAACCACGCAAGGGAUGGUGUCAAAUUCGGCGAAACCUAAGCGCCCGCCCGGGCGUAUGGCAACGCCGAGCCAAGCUUCGGCGCCUGCGCCGAUGAAGGUGUAGGGACUAGACGGCACCCACCUAAGGCCAACGAUAUGGUGAAGGCAUAGUCCAGGGAGGGGCGAAAGUCACACAAACCGG [A120G A145C C150A U176G],0.00611
15,GUGCCUUGCGCCGGGAAACCACGCAAGGGAUGGUGUCAAAUUCGGCGAAACCUAAGCGCCCGCCCGGGCGUAUGGCAACGCCGAGCCAAGCUUCGGCGCCUGCGCCGAUGAAGGUGUAGGGACUAGACGGCACCCACCUAAGGCCAACGGUAUGGUGAAGGCAUAGUCCAGGGAGUGGCGAAAGUCACACAAACCGG [A120G A145C C150G],0.0854

# — the RNAGym collection of RNA variant scans (doi:10.1093/molbev/msab373)
